# Results reported in patent publication US20050164345A1, “Synthesis of human procollagens and collagens in recombinant DNA systems” (priority 1992, published 2005).
# System: prolyl 4-hydroxylase
# Assay: prolyl 4-hydroxylase activity of Triton X-100 extracts from insect cells (hydroxylation-coupled decarboxylation of 2-oxo[1-14C]glutarate)
# Type: biochemical
# Settings: Triton extract, 72 h after infection
# Protocol: The 0.2% Triton X-100 extracts of cell homogenates were analyzed for prolyl 4-hydroxylase activity with an assay based on the hydroxylation-coupled decarboxylation of 2-oxo [1-^14C] glutarate (Kivirikko et al., Methods EnzVmol. 82: 245-304 (1982)). As reported previously (Veijola et al., J. Biol. Chem. 269: 26746-26753 (1994)), a significant level of prolyl 4-hydroxylase activity was found in both Sf9 and High Five cells, the activity in High Five cells being distinctly higher than that in Sf9 cells (Table I). […]
# Insect cells (Sf9 or High Five, Invitrogen) were cultured in TNM-FH medium (Sigma) supplemented with 10% fetal bovine serum (BioClear) or in a serum-free HyQ CCM3 medium (HyClone) either as monolayers or in suspension in shaker flasks at 27° C. […] The remaining cell pellet that was insoluble in the homogenization buffer was further solubilized in 1% SDS and analyzed by SDS-PAGE^1. […] Aliquots of the supernatants of the cell homogenates and the concentrated cell culture medium were analyzed by denaturing SDS-PAGE, followed by staining with Coomassie Brilliant Blue or Western blotting with an antibody to the N-propeptide of human type III procollagen.
molecule,measurement,setting,value
"Proα1 (III) chains: Triton X-100 extract of insect cells expressing only proα1 chains of human type III procollagen (protein, UniProt P02461 24-1466, looked up, pro-form, Triton X-100 extract of insect cells expressing only proα1 chains of human type III procollagen) pro-form: QQEAVEGGCSHLGQSYADRDVWKPEPCQICVCDSGSVLCDDIICDDQELDCPNPEIPFGECCAVCPQPPTAPTRPPNGQGPQGPKGDPGPPGIPGRNGDPGIPGQPGSPGSPGPPGICESCPTGPQNYSPQYDSYDVKSGVAVGGLAGYPGPAGPPGPPGPPGTSGHPGSPGSPGYQGPPGEPGQAGPSGPPGPPGAIGPSGPAGKDGESGRPGRPGERGLPGPPGIKGPAGIPGFPGMKGHRGFDGRNGEKGETGAPGLKGENGLPGENGAPGPMGPRGAPGERGRPGLPGAAGARGNDGARGSDGQPGPPGPPGTAGFPGSPGAKGEVGPAGSPGSNGAPGQRGEPGPQGHAGAQGPPGPPGINGSPGGKGEMGPAGIPGAPGLMGARGPPGPAGANGAPGLRGGAGEPGKNGAKGEPGPRGERGEAGIPGVPGAKGEDGKDGSPGEPGANGLPGAAGERGAPGFRGPAGPNGIPGEKGPAGERGAPGPAGPRGAAGEPGRDGVPGGPGMRGMPGSPGGPGSDGKPGPPGSQGESGRPGPPGPSGPRGQPGVMGFPGPKGNDGAPGKNGERGGPGGPGPQGPPGKNGETGPQGPPGPTGPGGDKGDTGPPGPQGLQGLPGTGGPPGENGKPGEPGPKGDAGAPGAPGGKGDAGAPGERGPPGLAGAPGLRGGAGPPGPEGGKGAAGPPGPPGAAGTPGLQGMPGERGGLGSPGPKGDKGEPGGPGADGVPGKDGPRGPTGPIGPPGPAGQPGDKGEGGAPGLPGIAGPRGSPGERGETGPPGPAGFPGAPGQNGEPGGKGERGAPGEKGEGGPPGVAGPPGGSGPAGPPGPQGVKGERGSPGGPGAAGFPGARGLPGPPGSNGNPGPPGPSGSPGKDGPPGPAGNTGAPGSPGVSGPKGDAGQPGEKGSPGAQGPPGAPGPLGIAGITGARGLAGPPGMPGPRGSPGPQGVKGESGKPGANGLSGERGPPGPQGLPGLAGTAGEPGRDGNPGSDGLPGRDGSPGGKGDRGENGSPGAPGAPGHPGPPGPVGPAGKSGDRGESGPAGPAGAPGPAGSRGAPGPQGPRGDKGETGERGAAGIKGHRGFPGNPGAPGSPGPAGQQGAIGSPGPAGPRGPVGPSGPPGKDGTSGHPGPIGPPGPRGNRGERGSEGSPGHPGQPGPPGPPGAPGPCCGGVGAAAIAGIGGEKAGGFAPYYGDEPMDFKINTDEIMTSLKSVNGQIESLISPDGSRKNPARNCRDLKFCHPELKSGEYWVDPNQGCKLDAIKVFCNMETGETCISANPLNVPRKHWWTDSSAEKKHVWFGESMDGGFQFSYGNPELPEDVLDVHLAFLRLLSSRASQNITYHCKNSIAYMDQASGNVKKALKLMGSNEGEFKAEGNSKFTYTVLEDGCTKHTGEWSKTVFEYRTRKAVRLPIVDIAPYDIGGPDQEFGVDVGPVCFL",Prolyl 4-hydroxylase activity,"High Five cells, mean of duplicates in three experiments",500 dpm/10 μl
same,Prolyl 4-hydroxylase activity,"Sf9 cells, mean of duplicates in one experiment",60 dpm/10 μl
